The text below walks through data of PMC6769490, “Protein Engineering of Multi-Modular Transcription Factor Alcohol Dehydrogenase Repressor 1 (Adr1p), a Tool for Dissecting In Vitro Transcription Activation” (Biomolecules, 2019).

The term stoichiometry N denotes a count of units in the complex or per binding partner.

Data set [1] deals with the molecule itself. Kind of data set: native gel or EMSA; N-PAGE/EMSA with half site dsDNA (one binding site), no CHAPS; 20, 40 and 80 pmol protein; stoichiometric mixture of both proteins (40 pmol) in lane 7. Background: In EMSA bound probe runs differently from free probe, usually more slowly.
Data set [2] concerns the molecule itself. Briefly: SEC; miniAdr1-BL alone, freshly purified and concentrated, no DNA; Superdex G75 on HPLC, 50 mM Na/K phosphate pH 6.9, 150 mM NaCl, 4 mM TCEP, 5 mM CHAPS, 5% glycerol, 3.5 mM spermine, 0.018 mM Zn acetate; 0.4 mL/min; masses from a calibration curve.
Data set [3] addresses T1, miniAdr1-BL (untagged) (Saccharomyces cerevisiae, UniProt P07248 75-471, del1-74;del179-418;del472-1323).
T1 sequence: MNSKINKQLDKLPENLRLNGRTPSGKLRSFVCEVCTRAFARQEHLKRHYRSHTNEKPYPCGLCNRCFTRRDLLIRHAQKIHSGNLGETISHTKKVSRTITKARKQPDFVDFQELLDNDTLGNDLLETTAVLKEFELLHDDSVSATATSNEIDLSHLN
Briefly: EMSA; no CHAPS, Zn acetate; mostly dimer; 40 mM Na phosphate pH 7.5, 40 mM NaCl, 10% glycerol, 18 uM Zn acetate (+/- 5 mM CHAPS, DTT, spermine), 30 min 4 C; HPLC-purified: 20 mM phosphate pH 7.0, 40 mM. The following applies: protein: recombinant; tags: none; chain copies: 2; label: 33P or none (ethidium bromide); 5' overhang 1 nt at both ends.

A further data set concerns the target T2, His-Adr1-165 (Saccharomyces cerevisiae, UniProt P07248 1-165).
T2 sequence: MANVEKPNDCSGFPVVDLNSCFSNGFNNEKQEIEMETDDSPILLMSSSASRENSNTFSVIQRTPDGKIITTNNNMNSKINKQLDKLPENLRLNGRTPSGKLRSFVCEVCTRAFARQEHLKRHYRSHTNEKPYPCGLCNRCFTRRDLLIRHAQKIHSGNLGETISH
Kind of data set: EMSA; CM + heparin purified; monomer and dimer; 40 mM Na phosphate pH 7.5, 40 mM NaCl, 10% glycerol, 18 uM Zn acetate (+/- 5 mM CHAPS, DTT, spermine), 30 min 4 C; HPLC-purified: 20 mM phosphate pH 7.0, 40 mM. To be noted: protein: recombinant; tags: His-tag; label: 33P or none (ethidium bromide); 5' overhang 1 nt at both ends.

In data set [4] the target is T3, Adr1-DBD (untagged) (Saccharomyces cerevisiae, UniProt P07248 75-178).
T3 sequence: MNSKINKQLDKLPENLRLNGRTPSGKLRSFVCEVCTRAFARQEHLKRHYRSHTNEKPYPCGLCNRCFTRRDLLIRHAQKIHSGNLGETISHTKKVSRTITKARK
Briefly: EMSA; no CHAPS, Zn acetate; mostly monomer; 40 mM Na phosphate pH 7.5, 40 mM NaCl, 10% glycerol, 18 uM Zn acetate (+/- 5 mM CHAPS, DTT, spermine), 30 min 4 C; HPLC-purified: 20 mM phosphate pH 7.0, 40 mM. To be noted: protein: recombinant; tags: none; label: 33P or none (ethidium bromide); 5' overhang 1 nt at both ends.

Data set [5] deals with the molecule itself. Kind of data set: native gel or EMSA; DNA binding assay with half site dsDNA; partially purified His-tagged Adr1-165 from bacteria (Supplementary Figure S1d, lanes 12-14).
The target in data set [6] is T1, miniAdr1-BL (untagged). Kind of data set: EMSA; 5 mM CHAPS; hairpin not competent for binding; 40 mM Na phosphate pH 7.5, 40 mM NaCl, 10% glycerol, 18 uM Zn acetate (+/- 5 mM CHAPS, DTT, spermine), 30 min 4 C; HPLC-purified: 20 mM phosphate pH 7.0, 40 mM. To be noted: protein: recombinant; tags: none; chain copies: 2; label: 33P; hairpin of a single strand, 5' overhang 4 nt.

The target of data set [7] is T1, miniAdr1-BL (untagged). Kind of data set: EMSA; 5 mM CHAPS, Zn acetate; protein 3.16e-8 to 1e-6 M, DNA 1e-8 M; 40 mM Na phosphate pH 7.5, 40 mM NaCl, 10% glycerol, 18 uM Zn acetate (+/- 5 mM CHAPS, DTT, spermine), 30 min 4 C; HPLC-purified: 20 mM phosphate pH 7.0, 40 mM. The following applies: protein: recombinant; tags: none; chain copies: 2; label: 33P (5' kinase label); self-complementary duplex, 5' overhang 4 nt at both ends.

The target in data set [8] is T3, Adr1-DBD (untagged). Briefly: EMSA; 5 mM CHAPS, Zn acetate; two smeared bands; 40 mM Na phosphate pH 7.5, 40 mM NaCl, 10% glycerol, 18 uM Zn acetate (+/- 5 mM CHAPS, DTT, spermine), 30 min 4 C; HPLC-purified: 20 mM phosphate pH 7.0, 40 mM. The following applies: protein: recombinant; tags: none; label: 33P (5' kinase label); self-complementary duplex, 5' overhang 4 nt at both ends.

“And” between values parts separate entries of the source, which are not always exact repeats. Equal entries are not always repeated.

B1: miniAdr1-BL (Adr1_Δ179-418), untagged (domain or fragment, Saccharomyces cerevisiae, UniProt P07248 75-471, looked up)
chain: MNSKINKQLDKLPENLRLNGRTPSGKLRSFVCEVCTRAFARQEHLKRHYRSHTNEKPYPCGLCNRCFTRRDLLIRHAQKIHSGNLGETISHTKKVSRTITKARKQPDFVDFQELLDNDTLGNDLLETTAVLKEFELLHDDSVSATATSNEIDLSHLN
notes: Alcohol dehydrogenase repressor 1 (Adr1p), Saccharomyces cerevisiae, UniProt P07248; residues 75-178 (PAR-TAD I with the basic linker 158-178) directly linked to residues 419-471 (core of TAD III); TAD I and TAD III fragments were ligated through inserted BamHI sites; Printed mass 18 kDa; also called construct (4); basic linker construct; source: Komagataella pastoris X-33, cytoplasm, purified …
Consider B1, for which the “stoichiometry N” value is 2 in data set [1]; ~2 and ~3 in data set [2].

B2: Half site UAS1 (dsDNA)
DNA 1: TCCGGGCATCTCCAACTTA
DNA 2: CTAAGTTGGAGATGCCCGG
Regarding B2, the binding result in the data set with miniAdr1-BL (untagged) [3], with His-Adr1-165 and in the data set with Adr1-DBD (untagged) [4] was “binds” each time.

B3: His-tagged Adr1-165 (residues 1-165) (domain or fragment, Saccharomyces cerevisiae, UniProt P07248 1-165, looked up)
chain: MANVEKPNDCSGFPVVDLNSCFSNGFNNEKQEIEMETDDSPILLMSSSASRENSNTFSVIQRTPDGKIITTNNNMNSKINKQLDKLPENLRLNGRTPSGKLRSFVCEVCTRAFARQEHLKRHYRSHTNEKPYPCGLCNRCFTRRDLLIRHAQKIHSGNLGETISH
notes: Alcohol dehydrogenase repressor 1 (Adr1p), Saccharomyces cerevisiae, UniProt P07248; residues 1-165, comprising only TAD I; also called HisAdr1-165; His-Adr1-165; source: E. coli BL21(DE3), pET28b, partially purified
Consider B3, for which the “stoichiometry N” value in data set [5] turned out to be 2.

B4: Adr1-DBD (residues 75-178), untagged (domain or fragment, Saccharomyces cerevisiae, UniProt P07248 75-178, looked up)
chain: MNSKINKQLDKLPENLRLNGRTPSGKLRSFVCEVCTRAFARQEHLKRHYRSHTNEKPYPCGLCNRCFTRRDLLIRHAQKIHSGNLGETISHTKKVSRTITKARK
notes: Alcohol dehydrogenase repressor 1 (Adr1p), Saccharomyces cerevisiae, UniProt P07248; Printed mass 12.4 kDa; also called construct (5); source: Komagataella pastoris X-33, purified (CM sepharose, SEC)
B4: the “stoichiometry N” value in data set [1] worked out at 2.

B5: Palindromic UAS1 hairpin (structured_DNA)
DNA: CCGGCCTCTCCAACTTATAAGTTGGAGAGG
On to B5, for which, in the data set with miniAdr1-BL (untagged) [6], the binding result is “no binding”.

B6: Palindromic UAS1 (dsDNA)
DNA 1: CCGGCCTCTCCAACTTATAAGTTGGAGAGG
DNA 2: CCGGCCTCTCCAACTTATAAGTTGGAGAGG
As to B6, the binding result in the data set with miniAdr1-BL (untagged) [7] and in the data set with Adr1-DBD (untagged) [8] was “binds” throughout.
